Patent publication US20100008917A1 (published 2010)
Each block holds one binder with its values, some of them ahead of it.

What was measured:
Assay in all cases: cell-based or functional assay
[1] = target: T1, human IL-27 (huIL-27), as used in Example 5 (human, UniProt Q14213 21-229; Q8NEV9 29-243, limits assumed)
T1 sequence (looked up) 1: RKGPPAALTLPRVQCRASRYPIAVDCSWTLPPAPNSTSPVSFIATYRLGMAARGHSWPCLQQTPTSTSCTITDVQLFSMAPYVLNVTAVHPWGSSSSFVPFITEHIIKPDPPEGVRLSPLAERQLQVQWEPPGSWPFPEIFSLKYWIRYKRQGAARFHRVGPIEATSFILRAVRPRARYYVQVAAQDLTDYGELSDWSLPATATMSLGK
T1 sequence (looked up) 2: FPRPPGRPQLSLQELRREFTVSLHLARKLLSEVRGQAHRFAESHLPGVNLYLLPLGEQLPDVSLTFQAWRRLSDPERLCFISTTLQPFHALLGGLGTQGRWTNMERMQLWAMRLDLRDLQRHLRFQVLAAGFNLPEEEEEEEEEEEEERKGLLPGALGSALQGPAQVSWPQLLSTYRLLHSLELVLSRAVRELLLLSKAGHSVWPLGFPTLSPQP

[2] = target: T2, mouse IL-27 (muIL-27), as used in Example 5 (mouse, UniProt O35228 19-228; Q8K3I6 29-234, limits assumed)
T2 sequence (looked up) 1: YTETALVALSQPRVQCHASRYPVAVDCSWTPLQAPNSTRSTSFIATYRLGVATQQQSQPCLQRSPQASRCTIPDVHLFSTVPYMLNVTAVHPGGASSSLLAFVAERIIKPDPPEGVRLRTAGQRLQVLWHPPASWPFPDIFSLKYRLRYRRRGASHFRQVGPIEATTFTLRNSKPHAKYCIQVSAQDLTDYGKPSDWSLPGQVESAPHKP
T2 sequence (looked up) 2: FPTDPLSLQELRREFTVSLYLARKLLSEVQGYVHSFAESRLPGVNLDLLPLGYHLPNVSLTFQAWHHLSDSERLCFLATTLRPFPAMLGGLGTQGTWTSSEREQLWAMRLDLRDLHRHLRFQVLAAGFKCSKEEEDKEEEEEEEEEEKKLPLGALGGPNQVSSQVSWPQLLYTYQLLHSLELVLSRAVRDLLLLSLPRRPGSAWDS

[3] = target: T1, human IL-27 (huIL-27), as used in …; remark: listed apart in the source
[4] = target: T2, mouse IL-27 (muIL-27), as used in …; remark: listed apart in the source

IC50 (nM), phospho-STAT3 in mouse spleens stimulated with the EC90 of the ligand [1]: 9.3 nM
IC50 (nM), phospho-STAT3 in mouse spleens stimulated with the EC90 of the ligand [2]: 0.18 nM
IC50 (nM), phospho-STAT3 in total human PBMCs stimulated with the EC90 of the ligand [3]: 1370 nM
IC50 (nM), phospho-STAT3 in total human PBMCs stimulated with the EC90 of the ligand [4]: 4.83 nM
B1: IL27RAm(mFc1) (Fc fusion)
chain: TRPHGSPGPLQCYSVGPLGILNCSWEPLGDLETPPVLYHQSQKYHPNRVWEVKVPSKQSWVTIPREQFTMADKLLIWGTQKGRPLWSSVSVNLETQMKPDTPQIFSQVDISEEATLEATVQWAPPVWPPQKALTCQFRYKECQAEAWTRLEPQLKTDGLTPVEMQNLEPGTCYQVSGRCQVENGYPWGEWSSPLSFQTPFLDPEDVWVSGTVCETSGKRAALLVWKDPRPCVQVTYTVWFGAGDITTTQEEVPCCKSPVPAWMEWAVVSPGNSTSWVPPTNLSLVCLAPESAPCDVGVSSADGSPGIKVTWKQGTRKPLEYVVDWAQDGDSLDKLNWTRLPPGNLSTLLPGEFKGGVPYRITVTAVYSGGLAAAPSVWGFREELVPLAGPAVWRLPDDPPGTPVVAWGEVPRHQLRGQATHYTFCIQSRGLSTVCRNVSSQTQTATLPNLHSGSFKLWVTVSTVAGQGPPGPDLSLHLPDNRIREPRGPTIKPCPPCKCPAPNLLGGPSVFIFPPKIKDVLMISLSPIVTCVVVDVSEDDPDVQISWFVNNVEVHTAQTQTHREDYNSTLRVVSALPIQHQDWMSGKEFKCKVNNKDLPAPIERTISKPKGSVRAPQVYVLPPPEEEMTKKQVTLTCMVTDFMPEDIYVEWTNNGKTELNYKNTEPVLDSDGSYFMYSKLRVEKKNWVERNSYSCSVVHEGLHNHHTTKSFSRTPGK

IC50 (nM), phospho-STAT3 in mouse spleens stimulated with the EC90 of the ligand [1]: 0.32 nM
IC50 (nM), phospho-STAT3 in mouse spleens stimulated with the EC90 of the ligand [2]: 0.14 nM
IC50 (nM), phospho-STAT3 in total human PBMCs stimulated with the EC90 of the ligand [3]: 0.95 nM
IC50 (nM), phospho-STAT3 in total human PBMCs stimulated with the EC90 of the ligand [4]: 2.97 nM
B2: human IL27RA-Fc5 fusion protein (Fc fusion)
chain: QGSAGPLQCYGVGPLGDLNCSWEPLGDLGAPSELHLQSQKYRSNKTQTVAVAAGRSWVAIPREQLTMSDKLLVWGTKAGQPLWPPVFVNLETQMKPNAPRLGPDVDFSEDDPLEATVHWAPPTWPSHKVLICQFHYRRCQEAAWTLLEPELKTIPLTPVEIQDLELATGYKVYGRCRMEKEEDLWGEWSPILSFQTPPSAPKDVWVSGNLCGTPGGEEPLLLWKAPGPCVQVSYKVWFWVGGRELSPEGITCCCSLIPSGAEWARVSAVNATSWEPLTNLSLVCLDSASAPRSVAVSSIAGSTELLVTWQPGPGEPLEHVVDWARDGDPLEKLNWVRLPPGNLSALLPGNFTVGVPYRITVTAVSASGLASASSVWGFREELAPLVGPTLWRLQDAPPGTPAIAWGEVPRHQLRGHLTHYTLCAQSGTSPSVCMNVSGNTQSVTLPDLPWGPCELWVTASTIAGQGPPGPILRLHLPDNTEPKSSDKTHTCPPCPAPEAEGAPSVFLFPPKPKDTLMISRTPEVTCVVVDVSHEDPEVKFNWYVDGVEVHNAKTKPREEQYNSTYRVVSVLTVLHQDWLNGKEYKCKVSNKALPSSIEKTISKAKGQPREPQVYTLPPSRDELTKNQVSLTCLVKGFYPSDIAVEWESNGQPENNYKTTPPVLDSDGSFFLYSKLTVDKSRWQQGNVFSCSVMHEALHNHYTQKSLSLSPGK
